# Data reported in paper PMC9794699.
# Columns and labels:
# [1] = target: low-density lipoprotein receptor-related protein 1 (LRP1), endogenous in WI38 lung fibroblasts (human (endogenous in WI38)) (UniProt Q07954)
# [2] = target: low-density lipoprotein receptor-related protein 1 (LRP1), endogenous in WI38 lung fibroblasts (human (endogenous in WI38)) (UniProt Q07954); remark: listed apart in the source
# Chain of UniProt Q07954 (Q07954 20-4544): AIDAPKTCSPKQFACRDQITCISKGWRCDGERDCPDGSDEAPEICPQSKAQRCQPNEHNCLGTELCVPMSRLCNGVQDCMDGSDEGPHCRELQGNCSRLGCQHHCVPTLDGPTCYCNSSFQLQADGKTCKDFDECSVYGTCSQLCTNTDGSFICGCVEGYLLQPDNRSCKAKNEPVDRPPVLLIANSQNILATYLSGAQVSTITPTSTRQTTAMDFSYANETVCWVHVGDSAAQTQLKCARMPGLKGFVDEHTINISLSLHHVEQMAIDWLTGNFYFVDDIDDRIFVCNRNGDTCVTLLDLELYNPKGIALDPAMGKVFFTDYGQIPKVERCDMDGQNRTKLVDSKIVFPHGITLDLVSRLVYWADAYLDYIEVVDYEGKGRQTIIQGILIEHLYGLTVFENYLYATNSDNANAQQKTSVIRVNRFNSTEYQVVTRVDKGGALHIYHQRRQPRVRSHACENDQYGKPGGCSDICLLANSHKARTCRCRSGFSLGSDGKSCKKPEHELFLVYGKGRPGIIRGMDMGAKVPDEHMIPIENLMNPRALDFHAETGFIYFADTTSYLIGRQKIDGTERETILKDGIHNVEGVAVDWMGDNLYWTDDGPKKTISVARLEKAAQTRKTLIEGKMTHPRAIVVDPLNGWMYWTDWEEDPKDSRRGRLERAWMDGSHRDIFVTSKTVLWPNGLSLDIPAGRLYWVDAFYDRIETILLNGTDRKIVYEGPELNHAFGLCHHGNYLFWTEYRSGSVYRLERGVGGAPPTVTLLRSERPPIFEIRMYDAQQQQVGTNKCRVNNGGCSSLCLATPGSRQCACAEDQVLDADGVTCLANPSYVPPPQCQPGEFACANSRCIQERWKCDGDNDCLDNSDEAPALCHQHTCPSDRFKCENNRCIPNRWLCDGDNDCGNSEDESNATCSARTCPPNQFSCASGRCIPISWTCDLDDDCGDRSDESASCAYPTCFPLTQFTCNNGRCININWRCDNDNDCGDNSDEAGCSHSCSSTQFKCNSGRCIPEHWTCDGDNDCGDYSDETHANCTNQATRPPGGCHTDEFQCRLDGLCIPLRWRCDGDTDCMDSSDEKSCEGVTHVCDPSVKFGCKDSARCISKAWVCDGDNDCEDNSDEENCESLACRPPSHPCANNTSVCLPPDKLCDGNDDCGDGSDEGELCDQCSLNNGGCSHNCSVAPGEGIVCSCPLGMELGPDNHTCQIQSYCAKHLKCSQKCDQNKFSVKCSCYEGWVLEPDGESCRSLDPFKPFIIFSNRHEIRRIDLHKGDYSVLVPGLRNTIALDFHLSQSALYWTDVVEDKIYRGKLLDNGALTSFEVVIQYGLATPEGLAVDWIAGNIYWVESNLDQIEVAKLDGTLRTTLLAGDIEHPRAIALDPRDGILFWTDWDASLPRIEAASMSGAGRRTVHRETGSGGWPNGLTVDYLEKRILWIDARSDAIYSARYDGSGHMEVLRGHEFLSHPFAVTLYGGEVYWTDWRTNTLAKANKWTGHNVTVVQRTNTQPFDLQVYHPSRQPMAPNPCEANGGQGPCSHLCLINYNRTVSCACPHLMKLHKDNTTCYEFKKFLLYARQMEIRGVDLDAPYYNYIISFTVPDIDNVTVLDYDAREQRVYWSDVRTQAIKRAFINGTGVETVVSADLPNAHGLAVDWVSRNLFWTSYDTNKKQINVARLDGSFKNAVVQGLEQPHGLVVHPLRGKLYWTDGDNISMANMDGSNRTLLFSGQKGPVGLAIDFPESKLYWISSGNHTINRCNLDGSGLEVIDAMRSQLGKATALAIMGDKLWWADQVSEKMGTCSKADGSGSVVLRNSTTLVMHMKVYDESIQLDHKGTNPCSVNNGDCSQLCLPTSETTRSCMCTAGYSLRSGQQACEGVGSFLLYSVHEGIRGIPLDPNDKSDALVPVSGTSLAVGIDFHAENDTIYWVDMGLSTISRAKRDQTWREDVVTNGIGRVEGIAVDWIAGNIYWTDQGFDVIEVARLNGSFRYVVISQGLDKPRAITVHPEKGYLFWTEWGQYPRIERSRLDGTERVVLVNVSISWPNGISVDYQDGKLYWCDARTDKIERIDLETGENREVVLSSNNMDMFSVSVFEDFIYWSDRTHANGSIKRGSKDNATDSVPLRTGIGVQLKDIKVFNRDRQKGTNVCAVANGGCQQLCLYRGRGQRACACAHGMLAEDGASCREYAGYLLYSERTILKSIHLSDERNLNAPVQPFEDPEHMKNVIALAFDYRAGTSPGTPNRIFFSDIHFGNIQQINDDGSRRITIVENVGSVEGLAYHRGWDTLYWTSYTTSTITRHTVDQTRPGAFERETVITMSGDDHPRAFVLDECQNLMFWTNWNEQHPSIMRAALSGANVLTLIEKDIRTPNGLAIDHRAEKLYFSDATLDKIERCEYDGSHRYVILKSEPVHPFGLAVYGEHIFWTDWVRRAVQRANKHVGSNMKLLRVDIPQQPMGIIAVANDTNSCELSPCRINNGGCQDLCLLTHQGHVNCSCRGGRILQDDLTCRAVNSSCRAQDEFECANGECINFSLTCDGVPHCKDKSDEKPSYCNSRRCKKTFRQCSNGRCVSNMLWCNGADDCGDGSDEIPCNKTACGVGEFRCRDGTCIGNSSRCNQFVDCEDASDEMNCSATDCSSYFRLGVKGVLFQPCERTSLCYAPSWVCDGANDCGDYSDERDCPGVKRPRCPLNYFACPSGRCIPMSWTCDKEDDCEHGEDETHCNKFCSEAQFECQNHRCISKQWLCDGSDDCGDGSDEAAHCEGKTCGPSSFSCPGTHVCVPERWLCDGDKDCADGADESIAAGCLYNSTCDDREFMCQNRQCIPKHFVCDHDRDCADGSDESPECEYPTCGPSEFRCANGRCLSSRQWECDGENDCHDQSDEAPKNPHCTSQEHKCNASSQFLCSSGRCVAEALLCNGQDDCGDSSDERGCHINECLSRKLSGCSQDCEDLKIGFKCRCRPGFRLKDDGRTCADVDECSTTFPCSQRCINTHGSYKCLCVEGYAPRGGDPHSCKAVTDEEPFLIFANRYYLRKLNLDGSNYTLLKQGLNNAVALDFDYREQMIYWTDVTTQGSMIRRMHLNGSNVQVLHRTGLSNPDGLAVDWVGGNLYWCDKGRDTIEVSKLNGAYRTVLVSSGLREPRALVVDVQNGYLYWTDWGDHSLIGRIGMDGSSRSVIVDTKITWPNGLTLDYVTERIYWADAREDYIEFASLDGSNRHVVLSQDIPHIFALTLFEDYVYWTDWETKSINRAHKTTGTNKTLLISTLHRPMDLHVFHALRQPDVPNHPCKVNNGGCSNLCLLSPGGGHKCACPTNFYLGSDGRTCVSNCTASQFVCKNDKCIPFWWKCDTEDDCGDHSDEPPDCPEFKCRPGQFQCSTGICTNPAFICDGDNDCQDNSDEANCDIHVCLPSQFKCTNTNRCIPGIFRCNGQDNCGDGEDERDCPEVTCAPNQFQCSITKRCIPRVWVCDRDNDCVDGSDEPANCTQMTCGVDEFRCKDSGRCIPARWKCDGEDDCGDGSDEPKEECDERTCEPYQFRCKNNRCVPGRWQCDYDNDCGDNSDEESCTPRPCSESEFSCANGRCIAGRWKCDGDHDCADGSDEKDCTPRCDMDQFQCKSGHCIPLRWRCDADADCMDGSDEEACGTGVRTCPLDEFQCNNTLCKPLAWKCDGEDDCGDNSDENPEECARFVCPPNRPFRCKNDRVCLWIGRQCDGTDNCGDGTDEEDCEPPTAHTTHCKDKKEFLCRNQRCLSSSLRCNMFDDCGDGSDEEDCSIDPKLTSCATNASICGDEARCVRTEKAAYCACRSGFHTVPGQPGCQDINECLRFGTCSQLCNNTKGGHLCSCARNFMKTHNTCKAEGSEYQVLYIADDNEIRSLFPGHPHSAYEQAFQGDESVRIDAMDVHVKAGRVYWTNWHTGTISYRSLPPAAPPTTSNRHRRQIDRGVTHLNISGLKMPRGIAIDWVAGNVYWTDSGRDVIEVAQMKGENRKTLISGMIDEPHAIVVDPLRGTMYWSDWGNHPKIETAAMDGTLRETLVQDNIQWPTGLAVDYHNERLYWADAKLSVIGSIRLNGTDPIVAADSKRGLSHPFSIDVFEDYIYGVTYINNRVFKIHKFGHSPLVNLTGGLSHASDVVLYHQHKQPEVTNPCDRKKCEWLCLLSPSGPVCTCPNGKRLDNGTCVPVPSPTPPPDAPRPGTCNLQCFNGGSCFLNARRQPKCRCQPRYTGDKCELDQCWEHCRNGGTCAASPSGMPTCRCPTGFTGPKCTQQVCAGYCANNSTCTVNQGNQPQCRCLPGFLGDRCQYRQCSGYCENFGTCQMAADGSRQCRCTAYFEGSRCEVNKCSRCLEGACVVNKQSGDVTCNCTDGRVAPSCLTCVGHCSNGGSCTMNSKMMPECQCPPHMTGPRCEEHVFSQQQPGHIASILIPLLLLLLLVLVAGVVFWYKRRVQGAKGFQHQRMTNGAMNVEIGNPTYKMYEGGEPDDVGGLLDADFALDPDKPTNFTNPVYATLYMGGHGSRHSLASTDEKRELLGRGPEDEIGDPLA
substance,measurement,setting,value
"PRSS2 (serine protease PRSS2, wild type), ectopically expressed in 293T cells (from UniProt P07478 16-247) (enzyme)",repression of Tsp-1 protein (western blot) in mock-transfected WI38 fibroblasts treated with CM from 293T cells expressing PRSS2,[1],58%
same,"Rac-GTPase activity (G-LISA) in WI38 cells treated with CM from 293T cells expressing PRSS2, compared to CM from empty vector-transfected cells",[2],2 fold
same,Rho-GTPase activity (G-LISA) in WI38 cells treated with PRSS2 CM (fold decrease),[2],3.2
